{
  "source": "patent US20100168443A1",
  "about": "“Ethoid-Containing Compounds, Methods for Preparing Ethoid-Containing Compounds, and Methods of Use” (UNIVERSITY OF VIRGINIA PATENT FOUNDATION, priority 2006, published 2010)",
  "key": {"[1]": {"target": "T1, Tachykinin NK2 HUMAN receptor (Homo sapiens, UniProt P21452)", "T1 construct": "host or cells: CHO", "T1 sequence (P21452 1-398)": "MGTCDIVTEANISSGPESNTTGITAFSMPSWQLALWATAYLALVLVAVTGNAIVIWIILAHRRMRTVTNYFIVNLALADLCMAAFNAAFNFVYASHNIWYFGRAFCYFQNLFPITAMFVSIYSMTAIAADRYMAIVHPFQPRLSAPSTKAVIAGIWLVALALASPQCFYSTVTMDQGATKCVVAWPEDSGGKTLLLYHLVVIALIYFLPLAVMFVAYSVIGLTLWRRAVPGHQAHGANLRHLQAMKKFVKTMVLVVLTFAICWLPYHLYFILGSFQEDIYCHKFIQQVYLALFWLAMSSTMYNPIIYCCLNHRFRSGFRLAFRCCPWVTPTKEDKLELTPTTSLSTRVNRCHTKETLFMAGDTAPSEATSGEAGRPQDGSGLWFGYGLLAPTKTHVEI", "details": "radioligand; Human recombinant (CHO cells); cited from earlier work"}, "DPP-4 peptidase": {"target": "T2, DPP-4 peptidase (Homo sapiens, UniProt P27487)", "T2 construct": "purchased Sigma-Aldrich", "T2 sequence (P27487 whole entry)": "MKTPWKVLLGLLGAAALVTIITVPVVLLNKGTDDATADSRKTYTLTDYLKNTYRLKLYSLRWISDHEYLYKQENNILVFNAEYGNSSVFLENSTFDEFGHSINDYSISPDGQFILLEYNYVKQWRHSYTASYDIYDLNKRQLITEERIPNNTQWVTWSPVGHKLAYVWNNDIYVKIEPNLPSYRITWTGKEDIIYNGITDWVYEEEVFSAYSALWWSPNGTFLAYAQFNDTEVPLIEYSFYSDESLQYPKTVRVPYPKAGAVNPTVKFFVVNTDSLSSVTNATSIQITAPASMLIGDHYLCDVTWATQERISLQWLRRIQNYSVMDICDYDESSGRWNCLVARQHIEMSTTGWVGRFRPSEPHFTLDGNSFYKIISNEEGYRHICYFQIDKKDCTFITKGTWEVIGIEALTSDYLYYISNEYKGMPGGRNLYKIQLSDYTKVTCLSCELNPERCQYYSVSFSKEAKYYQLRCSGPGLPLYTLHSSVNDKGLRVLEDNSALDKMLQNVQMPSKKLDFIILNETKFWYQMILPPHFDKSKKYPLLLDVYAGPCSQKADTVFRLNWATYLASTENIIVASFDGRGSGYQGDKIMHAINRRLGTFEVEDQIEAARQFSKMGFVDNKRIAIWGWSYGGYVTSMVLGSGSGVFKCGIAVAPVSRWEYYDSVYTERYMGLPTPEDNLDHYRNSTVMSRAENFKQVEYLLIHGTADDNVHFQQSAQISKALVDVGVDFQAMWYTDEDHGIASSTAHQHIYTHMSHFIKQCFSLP", "test": "DPP4 enzyme stability assay", "format": "in vitro ADME", "details": "1 mU DPP-4, tris buffer pH 7.5, 37° C, up to 8 hours incubation"}, "[2]": {"target": "human GnRH recombinant receptor (AequoScreen cell line, FAST-0160A) (human) (UniProt P30968)", "sequence (P30968 whole entry)": "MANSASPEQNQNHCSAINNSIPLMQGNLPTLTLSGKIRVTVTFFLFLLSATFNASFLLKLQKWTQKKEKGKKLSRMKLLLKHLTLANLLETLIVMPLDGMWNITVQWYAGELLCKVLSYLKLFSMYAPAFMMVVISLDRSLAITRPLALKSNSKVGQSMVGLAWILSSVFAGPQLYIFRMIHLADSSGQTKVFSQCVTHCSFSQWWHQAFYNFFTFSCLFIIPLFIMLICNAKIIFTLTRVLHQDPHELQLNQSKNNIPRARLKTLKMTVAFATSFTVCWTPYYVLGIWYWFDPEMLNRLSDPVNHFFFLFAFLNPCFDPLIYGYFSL", "test": "cell-based or functional assay"}, "[3]": {"target": "T3, Tachykinin NK3 human receptor (human recombinant, CHO cells) (human, UniProt P29371 1-465)", "T3 construct": "whole, on cells", "T3 sequence (looked up)": "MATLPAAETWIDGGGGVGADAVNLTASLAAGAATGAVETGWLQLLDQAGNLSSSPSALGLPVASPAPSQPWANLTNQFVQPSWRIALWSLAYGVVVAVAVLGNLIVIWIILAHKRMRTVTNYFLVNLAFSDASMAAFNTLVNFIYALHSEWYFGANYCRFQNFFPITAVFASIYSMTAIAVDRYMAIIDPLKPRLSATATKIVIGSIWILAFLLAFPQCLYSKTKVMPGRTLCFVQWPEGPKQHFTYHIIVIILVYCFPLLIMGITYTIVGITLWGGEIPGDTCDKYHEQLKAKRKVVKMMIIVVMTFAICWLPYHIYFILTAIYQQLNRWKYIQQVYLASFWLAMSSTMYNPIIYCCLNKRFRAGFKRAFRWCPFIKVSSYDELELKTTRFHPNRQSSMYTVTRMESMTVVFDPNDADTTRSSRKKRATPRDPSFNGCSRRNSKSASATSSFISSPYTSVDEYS", "test": "radioligand binding, human recombinant NK3 in CHO cells (MDS Pharma assay #255710; printed as assay parameter)"}},
  "note": "Where a SMILES comes first, the peptide text is derived from it. Where no end group is shown, it is not given here. [ ]: non-standard residue; d: D form. NMeF = CN[C@@H](Cc1ccccc1)C(=O)O; Nle = CCCC[C@H](N)C(=O)O",
  "data": [
    {"molecule": "CC(=O)NC1(c2ccccc2)CCN(CC[C@H](CN(C)C(=O)c2ccccc2)c2ccc(Cl)c(Cl)c2)CC1", "note": "[[3H] SR-48968]", "values": [
      {"measurement": "Kd", "setting": "[1]", "value": 0.25, "unit": "nM"}
    ]},
    {"molecule": "CCCC[C@H](NC(=O)[C@@H](NC(=O)[C@H](CC(=O)O)NC(=O)[C@H](CCC(N)=O)NC(=O)[C@H](CC(C)C)NC(=O)[C@H](CC(C)C)NC(=O)[C@H](CCCCN)NC(=O)[C@H](CCCNC(=N)N)NC(=O)[C@H](C)NC(=O)[C@H](CO)NC(=O)[C@H](CC(C)C)NC(=O)[C@H](CCC(N)=O)NC(=O)CNC(=O)[C@H](CC(C)C)NC(=O)[C@@H](NC(=O)[C@H](CCCCN)NC(=O)[C@H](CCCNC(=N)N)NC(=O)[C@H](Cc1ccc(O)cc1)NC(=O)[C@H](C)NC(=O)[C@H](C)NC(=O)[C@@H](NC(=O)[C@H](Cc1ccccc1)NC(=O)[C@@H](NC(=O)[C@H](C)NC(=O)[C@H](CC(=O)O)NC(=O)[C@H](C)NC(=O)[C@@H](N)Cc1ccc(O)cc1)[C@@H](C)CC)[C@@H](C)O)C(C)C)[C@@H](C)CC)C(=O)N[C@@H](CO)C(=O)N[C@@H](CCCNC(=N)N)C(N)=O", "note": "[peptide control] (H-YADAIFTAAYRKVLGQLSARKLLQDI[Nle]SR-NH2)", "values": [
      {"measurement": "DPP-4 peptidase resistance (degradation by HPLC-MS)", "setting": "DPP-4 peptidase", "value": "substantially cleaved"}
    ]},
    {"molecule": "[D-Trp6] LHRH (Bachem, H4075) (peptide)", "values": [
      {"measurement": "EC50, aequorin luminescence agonist assay (AequoScreen cells)", "setting": "[2]", "value": 0.14, "unit": "nM"},
      {"measurement": "EC50, historical value of the same assay", "setting": "[2]", "value": 0.38, "unit": "nM"}
    ]},
    {"molecule": "DMHDFF[NMeF]GLM-NH2 (ends and bridges not checked; also: 125I label, position not given here)", "note": "[[125I] MePhe7-Neurokinin B]", "values": [
      {"measurement": "Kd", "setting": "[3]", "value": 0.28, "unit": "nM"}
    ]}
  ]
}
